This passage reports Kd results from paper PMC11584738.

Usually Kd stands for the concentration at which binding is half-saturated. Low values mean tighter binding, high ones weaker binding.

In the assay the target is His-GST-TRP (without signal peptide) (Verticillium dahliae strain V991). In words: MST.

“GST-CTL1 (without signal peptide) (natural protein)” displayed a Kd of 1790 nM.
